The text below walks through data of the Human Domainome abundance scans (Beltran et al. 2025).

± gives the uncertainty stated by the source.

B1: Mineralocorticoid receptor, residues 600 to 675; numbered along this chain, P08235 (parent)
chain: SKICLVCGDEASGCHYGVVTCGSCKVFFKRAVEGQHNYLCAGRNDCIIDKIRRKNCPACRLQKCLQAGMNLGARKS

Variants of B1 are the subject of the series. Description: abundance fitness (aPCA) (normalised: wild type 0, dead -1); higher = more abundant; growth selection in yeast, the domain comes from the species named. The conditions noted are these: Homo sapiens.
As for H36F, the abundance fitness was -0.023 ± 0.045. The result for H36A reads 0.025 ± 0.03.

On to H36C, for which the abundance fitness was -0.042 ± 0.042. Under H36P stands -0.021 ± 0.036; under N55M, -0.096 ± 0.062.

In the case of N55S, the abundance fitness was -0.051 ± 0.038. In the case of N55F, the abundance fitness is -0.093 ± 0.051. On to N55P, for which the abundance fitness is -0.144 ± 0.047.

With N55T, the abundance fitness is 0.015 ± 0.04. Regarding C59P, the abundance fitness is -0.615 ± 0.08.

With C59I, the abundance fitness was -0.955 ± 0.14.

On to C59Y, for which the abundance fitness was -0.995 ± 0.17. The result for C46R reads -0.821 ± 0.088; that for C46E, -0.852 ± 0.34; that for R43P, -0.138 ± 0.038. The result for R43W reads -0.067 ± 0.04; that for R43H, -0.029 ± 0.04. On to R43L, for which the abundance fitness is -0.055 ± 0.029. The result for R43G reads -0.006 ± 0.028; that for I48T, -0.026 ± 0.035; that for A67H, -0.026 ± 0.17.

In the case of A67D, the abundance fitness is -0.653 ± 0.27. With P57C, the abundance fitness is -0.042 ± 0.057. The result for Q35R reads -0.002 ± 0.038; that for Q35N, -0.058 ± 0.049. Under V18H stands -0.333 ± 0.13; under V18F, -0.274 ± 0.098; under V18Q, -0.15 ± 0.067. Turning to G17I, the abundance fitness was -0.24 ± 0.16. On to G17C, for which the abundance fitness was -0.049 ± 0.1. The result for G8Q reads -0.095 ± 0.061.

As for G8S, the abundance fitness was -0.057 ± 0.055.

Consider G8I, for which the abundance fitness was -0.605 ± 0.25.

Consider G8F, for which the abundance fitness was -0.202 ± 0.096. Turning to R30W, the abundance fitness is -0.29 ± 0.5. Under V6A stands -0.051 ± 0.043; under V6G, -0.726 ± 0.093.

For the variant S1F, the abundance fitness was -0.048 ± 0.1. For the variant S1Y, the abundance fitness stood at 0 ± 0.089. Under S1H stands 0.002 ± 0.26; under N44S, -0.02 ± 0.043. In the case of N44E, the abundance fitness was -0.042 ± 0.052. Turning to N44Q, the abundance fitness is -0.038 ± 0.049.

With N44M, the abundance fitness is -0.081 ± 0.049. Regarding N44F, the abundance fitness was -0.075 ± 0.067.

In the case of G72M, the abundance fitness is -0.042 ± 0.052. The result for F27M reads -0.861 ± 0.19. Under F27K stands -0.924 ± 0.18; under F27V, -0.591 ± 0.082. Under F27H stands -0.427 ± 0.2. As for F27I, the abundance fitness is -0.608 ± 0.19. The result for F27Q reads -0.847 ± 0.16; that for I51V, 0.085 ± 0.055; that for I51W, -0.164 ± 0.066. In the case of I51L, the abundance fitness was found to be 0.018 ± 0.056. Under I51Q stands 0.095 ± 0.076; under I51Y, 0.048 ± 0.088; under I51K, -0.093 ± 0.051.

In the case of Q66R, the abundance fitness was -0.014 ± 0.039.

Consider Q66H, for which the abundance fitness is -0.045 ± 0.11. The result for Q66P reads -0.697 ± 0.18; that for Q66T, -0.051 ± 0.066.

In the case of A31E, the abundance fitness was -0.022 ± 0.23. The result for A31S reads -0.022 ± 0.38. For D49M, the abundance fitness is -0.3 ± 0.079. The result for D49W reads -0.258 ± 0.038; that for D49E, -0.04 ± 0.038; that for D49R, -0.287 ± 0.029. Under D49L stands -0.221 ± 0.039; under A58G, -0.051 ± 0.034; under L65G, -0.051 ± 0.038.

L65N: the abundance fitness was -0.058 ± 0.082.

For the variant L65H, the abundance fitness stood at 0.032 ± 0.071. With C40E, the abundance fitness was -0.646 ± 0.15. The result for C14G reads -0.077 ± 0.055.

For C14Q, the abundance fitness was 0.013 ± 0.054.

With C14N, the abundance fitness is -0.047 ± 0.11. Consider S12F, for which the abundance fitness was -0.173 ± 0.15. In the case of S12R, the abundance fitness was 0.004 ± 0.072. Under K25H stands -0.128 ± 0.11.

In the case of K25A, the abundance fitness is -0.065 ± 0.042.

Turning to A41P, the abundance fitness is -0.116 ± 0.048.

Regarding A41G, the abundance fitness stood at 0.028 ± 0.04. On to A41H, for which the abundance fitness was -0.033 ± 0.045. With G13M, the abundance fitness was -0.035 ± 0.046.

Take G13L: the abundance fitness is -0.073 ± 0.04. The result for Y16S reads -0.097 ± 0.049; that for Y16Q, -0.068 ± 0.057.

Regarding Y16R, the abundance fitness is -0.075 ± 0.039. Take G22W: the abundance fitness was -0.088 ± 0.05. Under G22L stands -0.094 ± 0.047; under S76I, -0.198 ± 0.13; under S76M, -0.084 ± 0.1. Turning to S76P, the abundance fitness was 0.007 ± 0.06. Under S76F stands -0.119 ± 0.06; under S76Y, -0.075 ± 0.079; under S76D, -0.031 ± 0.12. In the case of S76E, the abundance fitness was -0.044 ± 0.095.

For the variant S76T, the abundance fitness worked out at 0.01 ± 0.066. With S23K, the abundance fitness was -0.007 ± 0.072.

With S23L, the abundance fitness was -0.104 ± 0.06. The result for S23D reads 0.01 ± 0.097. The result for S23N reads 0.051 ± 0.12. Under S23C stands -0.253 ± 0.11; under I3D, -0.062 ± 0.085.

Take I3G: the abundance fitness is -0.162 ± 0.04. Under K54G stands -0.059 ± 0.05; under K54Y, -0.032 ± 0.048; under K54E, -0.046 ± 0.092. Take K54S: the abundance fitness amounted to 0.013 ± 0.035. The result for G42F reads -0.044 ± 0.045; that for G42Q, 0.032 ± 0.091. The result for G42P reads -0.621 ± 0.083; that for G42T, -0.099 ± 0.05. As for G42S, the abundance fitness came out at 0.023 ± 0.037.

Regarding F28M, the abundance fitness was -0.101 ± 0.077. In the case of G34T, the abundance fitness was -0.064 ± 0.056. In the case of G34Q, the abundance fitness is -0.043 ± 0.099. The result for G34I reads -0.103 ± 0.087; that for C4M, -0.96 ± 0.19; that for C4S, -0.851 ± 0.14.

With C4V, the abundance fitness was -0.989 ± 0.24.

Consider C64Y, for which the abundance fitness is -0.452 ± 0.06. Under C64S stands -0.113 ± 0.031; under C64I, -0.415 ± 0.065; under C7L, -1.15 ± 0.49.

Turning to C7S, the abundance fitness was -0.96 ± 0.27. Under K2E stands -0.072 ± 0.057; under K2L, -0.099 ± 0.049; under K2Q, 0.118 ± 0.067.

In the case of K2R, the abundance fitness is -0.083 ± 0.041. The result for K2M reads -0.075 ± 0.055; that for Q62M, 0.026 ± 0.082. The result for Q62A reads -0.013 ± 0.053.

Q62H: the abundance fitness was determined as 0.006 ± 0.051. Take Q62T: the abundance fitness is -0.052 ± 0.055.

I47M: the abundance fitness was -0.079 ± 0.09. For the variant I47F, the abundance fitness is -0.01 ± 0.047.

As to I47H, the abundance fitness is -0.018 ± 0.043. For the variant I47V, the abundance fitness was -0.019 ± 0.058. Turning to N37V, the abundance fitness was determined as 0.026 ± 0.036. As to N37F, the abundance fitness was -0.264 ± 0.075. N37M: the abundance fitness was -0.076 ± 0.059.

With N37T, the abundance fitness was -0.029 ± 0.04. The result for R52C reads -0.043 ± 0.065. Under R52I stands 0.049 ± 0.069; under K63W, -0.204 ± 0.083. Under E10H stands 0.078 ± 0.13; under E10P, -0.108 ± 0.071. Regarding E10K, the abundance fitness was determined as 0.016 ± 0.057.

For the variant E10D, the abundance fitness was -0.018 ± 0.082. The result for E10W reads -0.012 ± 0.045; that for E33D, -0.043 ± 0.052; that for E33N, -0.089 ± 0.057. The result for E33Q reads -0.039 ± 0.068. Turning to E33I, the abundance fitness was -0.124 ± 0.047. Under E33C stands -0.107 ± 0.055; under E33H, -0.077 ± 0.051. As for L5K, the abundance fitness turned out to be 0.057 ± 0.067.

With N70P, the abundance fitness is -0.021 ± 0.039. In the case of N70G, the abundance fitness is -0.082 ± 0.064.

In the case of N70S, the abundance fitness worked out at 0.034 ± 0.032. Under N70V stands -0.011 ± 0.058. Under V32I stands 0.019 ± 0.1; under V32H, -0.158 ± 0.14. Turning to H15Y, the abundance fitness is -0.057 ± 0.085. Under H15D stands -0.119 ± 0.073.
